Assay results from US10155811B2, “APLNR modulators and uses thereof” (Regeneron Pharmaceuticals, Inc., priority 2013, dated 2018).

T1: hAPLNR (Homo sapiens, UniProt P35414)
T1 sequence (P35414 1-380): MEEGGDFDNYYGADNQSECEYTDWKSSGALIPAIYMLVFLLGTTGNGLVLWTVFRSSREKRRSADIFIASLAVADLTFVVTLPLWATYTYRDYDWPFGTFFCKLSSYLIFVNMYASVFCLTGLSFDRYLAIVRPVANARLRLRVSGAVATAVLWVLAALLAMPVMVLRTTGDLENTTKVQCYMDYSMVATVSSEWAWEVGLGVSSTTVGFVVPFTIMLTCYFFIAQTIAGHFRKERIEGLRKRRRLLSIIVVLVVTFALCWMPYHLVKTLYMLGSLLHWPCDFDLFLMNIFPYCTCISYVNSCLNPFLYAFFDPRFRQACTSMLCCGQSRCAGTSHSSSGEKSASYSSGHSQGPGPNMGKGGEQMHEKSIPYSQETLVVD

B1: H2aM9227N: anti-APLNR antibody, HCVR/LCVR SEQ ID NO: 50/58, mouse IgG2a Fc (antibody, V domains shown)
VH: EVQLVESGGGLVQPGGSLRLSCAASGFTFSSFWMSWVRQVPGKGLEWVANIKQDGSEKYYVDSVKGRFTISRDNAKNSLYLQMNSLRAEDTAVYYCARDRFGYSFYDKGVRYYYGMDVWGQGTTVTVSS
VL: DIQMTQSPSSLSVSVGDRVTITCRASQGIRNDLGWYQQKPGKAPKRLIYATSSLQSGVPSRFSGSGSGTEFTLTISGLQPEDFATYYCLQHNSYPRTFGQGTKVEIK
modifications: mouse IgG2a Fc
B2: H4H9101P: anti-APLNR antibody, HCVR/LCVR SEQ ID NO: 146/154, human IgG4 Fc (antibody, V domains shown)
VH: QVQLVQSGAEVKKPGASVEVSCKASGYTFTDYYIHWIRQAPGQGLEWMGWINPDSGRTNYAQKFQVRVTMTRDTSITTAYMELNRLKSDDTAVYYCARGPLRGYSGYDFFDYWGQGTLVTVSS
VL: DIQLTQSPSFLSASVGDRVTITCWASQGISSYLAWYQQKPGKAPKLLIYAASTLQSGVPSRFSGSGSGTEFTLTISSLQPEDFASYFCQQLNSNPRTFGQGTKVEIK
modifications: human IgG4 Fc
B3: H4H9103P: anti-APLNR antibody, HCVR/LCVR SEQ ID NO: 162/170, human IgG4 Fc (antibody, V domains shown)
VH: EVQLVESGGGLVQPGRSLRLSCAASGFTFDDYAMHWVRQVPGKGLEWVSGITWNSGDIGYADSVKGRFTISRDNAKNSLYLQMNSLRAEDTALYYCTKDKDSSGYYGIDVWGQGTTVTVSS
VL: DIQMTQSPSSVSASVGDRVTITCRASQGIRTWLAWYQQKPGKAPKLLIYAASSLQSGVPSRFSGSESGTDFTLTISSLQPEDFATYYCQQANSFPFTFGPGTKVDIK
modifications: human IgG4 Fc
B4: H4H9104P: anti-APLNR antibody, HCVR/LCVR SEQ ID NO: 178/186, human IgG4 Fc (antibody, V domains shown)
VH: QVQLVESGGDLVKPGGSLRLSCAASGFTFSDYYMNWIRQAPGKGLEWVSYISSSGSTIHYADSVKGRFTISRDNAKNLVYLRMNSLRAEDTAVYFCAREREVHDYSDPYFFFYGMDVWGQGTTVTVSS
VL: DIQMTQSPSSVSASVGDRVTITCRASQDVSSWLAWYQHKPGKAPKLLIFAASSLQSGVPSRFSGSGSGTDFTLTISSLQSEDFATYYCQQANSFPLTFGGGTKVEIK
modifications: human IgG4 Fc
B5: H4H9112P: anti-APLNR antibody, HCVR/LCVR SEQ ID NO: 194/202, human IgG4 Fc (antibody, V domains shown)
VH: QVQLVQSGAEVKKPGASVEVSCKASGYTFTDYYIHWIRQAPGQGLEWMGWINPDSGRTNYAQKFQVRVTMTRDTSITTAYMELNRLKSDDTAVYYCARGPLRGYSGYDFFDYWGQGTLVTVSS
VL: DIQMTQSPSSLSAFVGDRVTITCRASQSISSYLNWYQQKPGKAPKLLIYTASTLQRGVPSRFRGSGSGTDFTLTISSLQPEDFATYYCHQTYSIPITFGQGTRLEIK
modifications: human IgG4 Fc
B6: H4H9113P: anti-APLNR antibody, HCVR/LCVR SEQ ID NO: 210/218, human IgG4 Fc (antibody, V domains shown)
VH: QVQLVQSGAEVKKPGASVEVSCKASGYTFTDYYIHWIRQAPGQGLEWMGWINPDSGRTNYAQKFQVRVTMTRDTSITTAYMELNRLKSDDTAVYYCARGPLRGYSGYDFFDYWGQGTLVTVSS
VL: DIQMTQSPSSLSASVGDRVTITCRASQGIRNDLGWYQQKPGKAPNRLIYAASSLQSGVPSRFSGSGSGTEFTLTISSLHPEDFATYSCLQHNSFPLTFGGGTKVEIK
modifications: human IgG4 Fc
B7: H2aM9222N: anti-APLNR antibody, HCVR/LCVR SEQ ID NO: 34/42, mouse IgG2a Fc (antibody, V domains shown)
VH: EVQLVESGGGLVQPGGSLRLSCAASGFTFSNYWMSWVRQAPGKGLEWVANIKQDGSERYYVGSVKGRFTISRGDAENSLYLQMNSLRAEDTAVYYCARDRFGYSAYDKGVRYYYGMDVWGQGTTVTVSS
VL: DIQMTQSPSSLSASVGDRVTITCRASQGIRNDLGWYQQKPGKAPKRLIYAASSLQSGVPSRFSGSGSGTEFTLTISSLQPEDFATYYCLQHNSYPRTFGQGTKVEIK
modifications: mouse IgG2a Fc
B8: H2aM9228N: anti-APLNR antibody, HCVR/LCVR SEQ ID NO: 66/74, mouse IgG2a Fc (antibody, V domains shown)
VH: EVQLVESGGGLVQPGGSLRLSCAASGFTFSNYWMSWVRLAPGKGLEWVANIKQDGSERYYVGSVKGRFTISRGDAKNSLYLQMNSLRAEDTAVYYCARDRFGYSAFDKGVRYYYGMDVWGQGTTVTVSS
VL: DIQMTQSPSSLSASVGDRVTITCRASQGIRNDLGWYQQKPGKAPKRLIYAASSLQSGVPSRFSGSGSGTEFTLTISSLQPEDFATYYCLQHNSYPRTFGQGTKVEIK
modifications: mouse IgG2a Fc
B9: H2aM9230N: anti-APLNR antibody, HCVR/LCVR SEQ ID NO: 82/90, mouse IgG2a Fc (antibody, V domains shown)
VH: EVQLVESGGGLVQPGGSLRLSCAASGFTFSSFWMSWVRQVPGKGLQWVANIKQDGSEKYYVDSVKGRFTISRDNAKNSLYLQMNSLRAEDTAVYYCARDRFGYSVYDKGVRYYYGMDVWGQGTTVTVSS
VL: DIQMTQSPSSLSVSVGDRVTITCRASQGIRNDLGWYQQKPGKAPKRLIYAASSLQSGVPSRFSGSGSGTEFTLTISGLQSEDFATYYCLQHKSYPRTFGQGTKVEIK
modifications: mouse IgG2a Fc
B10: H1M9207N: anti-APLNR antibody, HCVR/LCVR SEQ ID NO: 2/10, mouse IgG1 Fc (antibody, V domains shown)
VH: EVQLVESGGGLAQPGGSLRLSCAASGFTFSNYWMSWVRQAPGKGLEWVANIKQDGSEKYYLESVKGRFTISRDNAKNLLYLQMNSLRAEDTAVFYCARPGLLRFLEPGRRYYSGMNVWGQGTTVTVSS
VL: DIQLTQSPSFLSASVGDRVTITCWASQGIRSYLAWYQQKPGKAPKLLIYAASTLQSGVPSRFSGSGSGTEFTLTISSLQPEDFATYYCQQFNSYPWTFGQGTKVEIK
modifications: mouse IgG1 Fc

Columns and labels:
HEK293 parental cells = experiment: FACS binding to HEK293 parental cells; conditions: Table 3; 10 μg/mL antibody; anti-mouse IgG Alexa 647
Method: Binding ratios for human APLNR binding to purified anti-APLNR monoclonal antibodies were determined by a fluorescence-activated cell sorting (FACS) binding assay. […] The resulting stable cell lines, HEK293/CRE-luc/hAPLNR and HEK293/CRE-luc/MfAPLNR, were maintained in DMEM containing 10% FBS, NEAA, and penicillin/streptomycin with either 100 μg/mL Hygromycin B for hAPLNR cells or 500 μg/mL G418 for MfAPLNR cells.
For the FACS analysis, HEK293 parental, HEK293/CRE-luc/hAPLNR, and, HEK293/CRE-luc/mfAPLNR cells were dissociated using Enzyme Free Dissociation reagent (#S-004, Millipore, Billerica, Mass., USA) and 10^6 cells/well were plated onto 96-well v-bottom plates in PBS containing 1% FBS. […] Cells were then filtered and analyzed on Accuri Flow Cytometer (BD Biosciences, San Jose, Calif., USA). Unstained and secondary antibody alone controls were also tested for binding to all cell lines. […] Geometric mean (Geom. mean) of fluorescence for each antibody was then normalized to geometric mean of unstained cells to obtain relative binding of antibody (binding ratios) per each cell type: HEK293 (parental), HEK293/CRE-luc/hAPLNR and HEK293/CRE-luc/MfAPLNR.

hAPLNR [1] = molecular target: T1, hAPLNR; experiment: CRE-luciferase cyclic AMP assay, activation of hAPLNR (inhibition of Forskolin-induced cAMP) in HEK293/CRE-luc/hAPLNR cells; format: cell-based; design: expressed in transfected cells; conditions: without Apelin; for % Activation at 100 nM mAb (at 10 uM Forskolin) / % Activation at 100 nM mAb (at 5 uM Forskolin): Table 6A, % of maximum Apelin activation
Method: The ability of anti-APLNR antibodies to activate hAPLNR-mediated cell signaling was measured using a cyclic AMP assay. The hAPLNR is a 7-transmembrane G-protein coupled receptor (GPCR).
(§1) The resulting cell line, HEK293/CRE-luc/hAPLNR, was maintained in DMEM containing 10% FBS, NEAA, pencillin/streptomycin, and 100 μg/mL Hygromycin B.
(§2) Testing of antibodies included a no antibody control.
(§3) The results of all assays were analyzed using nonlinear regression (4-parameter logistics) within Prism 5 software (GraphPad).

hAPLNR [2] = molecular target: T1, hAPLNR; experiment: CRE-luciferase cyclic AMP assay, inhibition of hAPLNR in the presence of 100 ρM Apelin in HEK293/CRE-luc/hAPLNR cells; format: cell-based; design: expressed in transfected cells; conditions: for inhibition (maximum blockade) of 100 ρM Apelin activation: unmodified anti-APLNR antibodies
Method: as §1, §2, §3

Molecule | Binding Ratio of Geom. Mean to Unstained Cells, HEK293 Parental (HEK293 parental cells) | % Activation at 100 nM mAb (at 10 uM Forskolin) (hAPLNR [1]) | activation of hAPLNR, % of maximum Apelin activation at 100 nM (hAPLNR [1]; 100 nM highest antibody dose tested) [%] | % Activation at 100 nM mAb (at 5 uM Forskolin) (hAPLNR [1]) | % Inhibition at 100 nM antibody, in the presence of 100 ρM Apelin (at 5 μM Forskolin) (hAPLNR [2]; Table 6D) | inhibition (maximum blockade) of 100 ρM Apelin activation (hAPLNR [2]) | % Inhibition at 100 nM antibody, in the presence of 100 ρM Apelin (at 5 μM Forskolin) (hAPLNR [2]; Table 6C)
B1 | 4 | 12% | 12 | – | – | – | –
B2 | – | – | – | No Activation | No Inhibition | did not demonstrate any measurable blockade | –
B3 | – | – | – | No Activation | No Inhibition | did not demonstrate any measurable blockade | –
B4 | – | – | – | No Activation | No Inhibition | did not demonstrate any measurable blockade | –
B5 | – | – | – | No Activation | No Inhibition | did not demonstrate any measurable blockade | –
B6 | – | – | – | No Activation | No Inhibition | did not demonstrate any measurable blockade | –
B7 | 2 | No Activation | – | – | – | – | 11% (IC)
B8 | 3 | No Activation | – | – | – | – | –
B9 | 3 | No Activation | – | – | – | – | –
B10 | 4 | No Activation | – | – | – | – | –
